In article doi:10.1101/2020.11.26.395038 (bioRxiv, 2020):

molecular target: mitogen-activated protein kinase p38α (residues 2-349) (human, UniProt Q16539 2-349); assay: ITC
Sequence (Q16539 2-349): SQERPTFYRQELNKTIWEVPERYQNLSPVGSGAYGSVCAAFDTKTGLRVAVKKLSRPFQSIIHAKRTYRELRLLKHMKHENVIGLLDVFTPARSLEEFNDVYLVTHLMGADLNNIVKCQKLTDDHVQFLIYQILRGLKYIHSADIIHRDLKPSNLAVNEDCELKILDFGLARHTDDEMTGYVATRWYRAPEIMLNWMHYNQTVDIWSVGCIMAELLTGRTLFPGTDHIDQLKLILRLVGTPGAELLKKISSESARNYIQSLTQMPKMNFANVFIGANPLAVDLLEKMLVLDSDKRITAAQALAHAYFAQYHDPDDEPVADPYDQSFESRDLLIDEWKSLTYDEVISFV

Kd [µM]	Binder
2 ± 0.1	full-length MKK6 (residues 1-334) (enzyme, UniProt P52564 1-334, looked up) MSQSKGKKRNPGLKIPKEAFEQPQTSSTPPRDLDSKACISIGNQNFEVKADDLEPIMELGRGAYGVVEKMRHVPSGQIMAVKRIRATVNSQEQKRLLMDLDISMRTVDCPFTVTFYGALFREGDVWICMELMDTSLDKFYKQVIDKGQTIPEDILGKIAVSIVKALEHLHSKLSVIHRDVKPSNVLINALGQVKMCDFGISGYLVDSVAKTIDAGCKPYMAPERINPELNQKGYSVKSDIWSLGITMIELAILRFPYDSWGTPFQQLKQVVEEPSPQLPADKFSAEFVDFTSQCLKKNSKERPTYPELMQHPFFTLHESKGTDVASFVKLILGD
3.5 ± 1.4	constitutively active MKK6 variant MKK6_(1-334)^S207ET211E (enzyme, UniProt P52564 1-334, looked up) MSQSKGKKRNPGLKIPKEAFEQPQTSSTPPRDLDSKACISIGNQNFEVKADDLEPIMELGRGAYGVVEKMRHVPSGQIMAVKRIRATVNSQEQKRLLMDLDISMRTVDCPFTVTFYGALFREGDVWICMELMDTSLDKFYKQVIDKGQTIPEDILGKIAVSIVKALEHLHSKLSVIHRDVKPSNVLINALGQVKMCDFGISGYLVDEVAKEIDAGCKPYMAPERINPELNQKGYSVKSDIWSLGITMIELAILRFPYDSWGTPFQQLKQVVEEPSPQLPADKFSAEFVDFTSQCLKKNSKERPTYPELMQHPFFTLHESKGTDVASFVKLILGD
7 ± 2	SQSKGKKRNPGLKIPKEAF [MKK6KIM peptide]
